Measured values taken from paper PMC7403387.

Target: Neural cell adhesion molecule (NCAM1), endogenous in Vero cells (African green monkey (endogenous in Vero))

Zika virus (ZIKV) E protein on the surface of purified mature virions, labelled with the maleimide-diazirine-biotin probe (natural protein)
decrease in ZIKV attachment to Vero cells (RT-qPCR) with NCAM1 ECD protein or anti-NCAM1 antibody: 40%
